Data taken from patent US20260234232A1 (QUAERITE BIOPHARM RESEARCH BEIJING, published 2026).
Like-named read-outs stand apart in the source and are kept apart here.

Columns and labels:
human VEGFA165 [1] = target: T1, human VEGFA165 (human, UniProt P15692-4 27-191); experiment: competitive ELISA, coated VEGFA, competitor VEGFR2-ECD-Fc 1 nM
T1 construct: Bought protein from two suppliers, treated as one molecule; the supplier is named under assay; also called antigen VEGFA

human VEGFA165 [2] = target: T1, human VEGFA165; experiment: ELISA, coated human VEGFA165, anti-His detection
Description: (§1) Antigen human VEGFA165 (label-free, purchased from Sino Biological, Cat. No.: HPLC-10008-HNAH, hereinafter referred to as VEGFA) was diluted with ELISA coating buffer to a final concentration of 0.3 μg/mL and added to a microplate at 100 μL/well for coating at 4° C. overnight. […] The solution used for antibody dilution was PBS containing 0.1% Tween-20 (pH 7.4), i.e., PBST. After being incubated at 37° C. for 1 h, the microplate was washed 3 times with PBST, and a dilution of His-Tag murine monoclonal antibody (purchased from Proteintech, Cat. No.: 66005-1-Ig) was added. The plate was further incubated at 37° C. for 1 h and washed again. Subsequently, a dilution of HRP-labeled goat anti-mouse IgG antibody (HRP-conjugated Affinipure Goat Anti-Mouse IgG (H+L), purchased from Proteintech, Cat. No.: SA00001-1) was added, and the plate was incubated at room temperature for 45 min. After the plate was washed, 100 μL of TMB (purchased from Tiangen Biotech, Cat. No.: PA107-01) was added to each well for color development at 37° C. for 15 min, followed by the addition of 50 μL of stopping solution. The absorbance at 450 nm (OD450) was measured using a microplate reader.

human VEGFA165 [3] = target: T1, human VEGFA165; experiment: ELISA, coated human VEGFA165, anti-His detection; remark: listed apart in the source
Description: as §1
The purified bivalent humanized nanobodies were evaluated for their VEGFA binding activity, and the experimental procedure was the same as that described in “2.

human VEGFA165 [4] = target: T1, human VEGFA165; experiment: SPR Biacore 8K, VEGFA165 on CM5, nanobody analyte, 1:1 fit
Description: Using the Biacore 8K instrument (Cytiva), the antigen VEGFA165 (label-free, purchased from Sino Biological, Cat. No.: HPLC-10008-HNAH) as the ligand was coupled onto a CM5 chip through amino-coupling reagents (EDC and NHS), with the coupling level being about 400 RU. The mobile phase buffer was HBS-EP (0.01 M HEPES pH 7.4, 0.15 M NaCl, 3 mM EDTA, 0.005% v/v Tween 20) during the experiment. […] In the kinetic analysis, the binding time between the antigen and the antibody was 240 s, the dissociation time was 1500 s, and the flow rate was 30 μL/min. In a multi-cycle mode, the chip was regenerated with 100 mM hydrochloric acid.

T1 sequence (P15692 other isoform, or with tags, fused parts or gaps limits assumed): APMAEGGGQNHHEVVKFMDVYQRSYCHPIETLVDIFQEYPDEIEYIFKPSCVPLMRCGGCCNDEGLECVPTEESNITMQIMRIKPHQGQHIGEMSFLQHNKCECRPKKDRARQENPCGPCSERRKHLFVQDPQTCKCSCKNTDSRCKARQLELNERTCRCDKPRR

B1: 2V15-25GS (VHH)
chain: QLQLVESGGGSVQPGGSLRLSCEVSGRTFASYTMGWFRQAPGKEREFVVAISKGGYKYDSVSLEARFTISKDNTKNTVYLQMNSLKPEDTAVYYCAGTRAYGSSRLRLAETYEYWGQGTQVTVSSGGGGSGGGSGGGSGGGSGGGSGGGSQLQLVESGGGSVQPGGSLRLSCEVSGRTFASYTMGWFRQAPGKEREFVVAISKGGYKYDSVSLEARFTISKDNTKNTVYLQMNSLKPEDTAVYYCAGTRAYGSSRLRLAETYEYWGQGTQVTVSS
notes: Tandem bivalent nanobody
Q: For B1, which IC50 (human VEGFA165 [1]) is on record?
A: The IC50 was 1.66 nM.

Q: What about the “Maximum inhibition rate (%)” value (human VEGFA165 [1]) of the same binder?
A: Its value is 94.5%.

Q: And the EC50 (human VEGFA165 [2])?
A: The EC50 was 0.24 nM.

B2: 2V15-30GS (VHH)
chain: QLQLVESGGGSVQPGGSLRLSCEVSGRTFASYTMGWFRQAPGKEREFVVAISKGGYKYDSVSLEARFTISKDNTKNTVYLQMNSLKPEDTAVYYCAGTRAYGSSRLRLAETYEYWGQGTQVTVSSGGGGSGGGSGGGGSGGGSGGGSGGGSGGGSQLQLVESGGGSVQPGGSLRLSCEVSGRTFASYTMGWFRQAPGKEREFVVAISKGGYKYDSVSLEARFTISKDNTKNTVYLQMNSLKPEDTAVYYCAGTRAYGSSRLRLAETYEYWGQGTQVTVSS
notes: Tandem bivalent nanobody
Q: What does the source list for B2?
A: IC50 (human VEGFA165 [1]): 1.6 nM; Maximum inhibition rate (%) (human VEGFA165 [1]): 94.1%; EC50 (human VEGFA165 [2]): 0.27 nM

B3: 2V15-39GS (VHH)
chain: QLQLVESGGGSVQPGGSLRLSCEVSGRTFASYTMGWFRQAPGKEREFVVAISKGGYKYDSVSLEARFTISKDNTKNTVYLQMNSLKPEDTAVYYCAGTRAYGSSRLRLAETYEYWGQGTQVTVSSGGGGSGGGSGGGGSGGGGSGGGGSGGGGSGGGGSGGGGSQLQLVESGGGSVQPGGSLRLSCEVSGRTFASYTMGWFRQAPGKEREFVVAISKGGYKYDSVSLEARFTISKDNTKNTVYLQMNSLKPEDTAVYYCAGTRAYGSSRLRLAETYEYWGQGTQVTVSS
notes: Tandem bivalent nanobody
Q: What does the source list for B3?
A: IC50 (human VEGFA165 [1]): 1.74 nM; Maximum inhibition rate (%) (human VEGFA165 [1]): 94.5%; EC50 (human VEGFA165 [2]): 0.38 nM

B4: 2V30-2H-2m-NL (VHH)
chain: EVQLVESGGGLVQPGGSLRLSCAASGRTFSSYTMGWFRQAPGKEREFVVAISKGGYKYDAVSLEARFTISRDNSKNTVYLQMNSLRPEDTAVYYCAATRAYGSSRLRLAKTYEYWGQGTLVTVSSEVQLVESGGGLVQPGGSLRLSCAASGRTFSSYTMGWFRQAPGKEREFVVAISKGGYKYDAVSLEARFTISRDNSKNTVYLQMNSLRPEDTAVYYCAATRAYGSSRLRLAKTYEYWGQGTLVTVSS
notes: Tandem bivalent humanized nanobody
Q: Which EC50 (human VEGFA165 [3]) does the source give for B4 here?
A: Its EC50 is 0.81 nM.

B5: 2V1-DP-NL (VHH)
chain: EVQLVESGGGLVQPGGSLRLSCAVSGRTFSSYTMGWFRQAPGKEREFVVAISKGGYKYDSVSLEARFTISRDNSKNTVYLQMNSLRPEDTAVYYCAATRAYGSSRLRLADTYEYWGQGTLVTVSSEVQLVESGGGLVQPGGSLRLSCAVSGRTFSSYTMGWFRQAPGKEREFVVAISKGGYKYDSVSLEARFTISRDNSKNTVYLQMNSLRPEDTAVYYCAATRAYGSSRLRLADTYEYWGQGTLVTVSS
notes: as for B4
Q: Which EC50 (human VEGFA165 [3]) does the source give for B5 here?
A: Its EC50 is 0.2 nM.

B6: 2V1-SA1-NL (VHH)
chain: EVQLVESGGGLVQPGGSLRLSCAVSGRTFSSYTMGWFRQAPGKEREFVVAISKGGYKYDSVSLEARFTISRDNAKNTVYLQMNSLRPEDTAVYYCAATRAYGSSRLRLADTYEYWGQGTLVTVSSEVQLVESGGGLVQPGGSLRLSCAVSGRTFSSYTMGWFRQAPGKEREFVVAISKGGYKYDSVSLEARFTISRDNAKNTVYLQMNSLRPEDTAVYYCAATRAYGSSRLRLADTYEYWGQGTLVTVSS
notes: as for B4
Q: B6 was tested. Which EC50 (human VEGFA165 [3]) did it give?
A: The EC50 was 0.28 nM.

B7: 2V13-4m-NL (VHH)
chain: EVQLVESGGGLVQPGGSLRLSCAASGRTFTSYTMGWFRQAPGKEREFVVAISKGGYKYDAVSLEARFTISRDNAKNTVYLQMNSLRPEDTAVYYCAGTRAYGSSRLRLADTYEYWGQGTLVTVSSEVQLVESGGGLVQPGGSLRLSCAASGRTFTSYTMGWFRQAPGKEREFVVAISKGGYKYDAVSLEARFTISRDNAKNTVYLQMNSLRPEDTAVYYCAGTRAYGSSRLRLADTYEYWGQGTLVTVSS
notes: as for B4
Q: How did the EC50 (human VEGFA165 [3]) turn out when B7 was run?
A: Its EC50 is 0.22 nM.

B8: 2V15-4m-NL (VHH)
chain: EVQLVESGGGLVQPGGSLRLSCAASGRTFASYTMGWFRQAPGKEREFVVAISKGGYKYDSVSLEARFTISRDNAKNTVYLQMNSLRPEDTAVYYCAGTRAYGSSRLRLAETYEYWGQGTLVTVSSEVQLVESGGGLVQPGGSLRLSCAASGRTFASYTMGWFRQAPGKEREFVVAISKGGYKYDSVSLEARFTISRDNAKNTVYLQMNSLRPEDTAVYYCAGTRAYGSSRLRLAETYEYWGQGTLVTVSS
notes: as for B4
Q: Which EC50 (human VEGFA165 [3]) does the source give for B8 here?
A: The EC50 was 0.19 nM.

B9: 2V40-3H-2m-NL (VHH)
chain: EVQLVESGGGLVQPGGSLRLSCAASGRTFSSYTMGWFRQAPGKEREFVVAISKGGYKYNAVSLEARFTISRDNSKNTVYLQMNSLRPEDTAVYYCAATRAYGSSRLRLAKTYEYWGQGTLVTVSSEVQLVESGGGLVQPGGSLRLSCAASGRTFSSYTMGWFRQAPGKEREFVVAISKGGYKYNAVSLEARFTISRDNSKNTVYLQMNSLRPEDTAVYYCAATRAYGSSRLRLAKTYEYWGQGTLVTVSS
notes: as for B4
Q: B9 was tested. Which EC50 (human VEGFA165 [3]) did it give?
A: Its EC50 is 0.26 nM.

B10: 2V1-DP-3GS (VHH)
chain: EVQLVESGGGLVQPGGSLRLSCAVSGRTFSSYTMGWFRQAPGKEREFVVAISKGGYKYDSVSLEARFTISRDNSKNTVYLQMNSLRPEDTAVYYCAATRAYGSSRLRLADTYEYWGQGTLVTVSSGGSEVQLVESGGGLVQPGGSLRLSCAVSGRTFSSYTMGWFRQAPGKEREFVVAISKGGYKYDSVSLEARFTISRDNSKNTVYLQMNSLRPEDTAVYYCAATRAYGSSRLRLADTYEYWGQGTLVTVSS
notes: as for B4
Q: B10 was tested. Which EC50 (human VEGFA165 [3]) did it give?
A: The EC50 was 0.27 nM.

B11: 2V1-SA1-3GS (VHH)
chain: EVQLVESGGGLVQPGGSLRLSCAVSGRTFSSYTMGWFRQAPGKEREFVVAISKGGYKYDSVSLEARFTISRDNAKNTVYLQMNSLRPEDTAVYYCAATRAYGSSRLRLADTYEYWGQGTLVTVSSGGSEVQLVESGGGLVQPGGSLRLSCAVSGRTFSSYTMGWFRQAPGKEREFVVAISKGGYKYDSVSLEARFTISRDNAKNTVYLQMNSLRPEDTAVYYCAATRAYGSSRLRLADTYEYWGQGTLVTVSS
notes: as for B4
Q: With B11 as the binder, how does the EC50 (human VEGFA165 [3]) read?
A: The EC50 was 0.26 nM.

B12: 2V15-4m-3GS (VHH)
chain: EVQLVESGGGLVQPGGSLRLSCAASGRTFASYTMGWFRQAPGKEREFVVAISKGGYKYDSVSLEARFTISRDNAKNTVYLQMNSLRPEDTAVYYCAGTRAYGSSRLRLAETYEYWGQGTLVTVSSGGSEVQLVESGGGLVQPGGSLRLSCAASGRTFASYTMGWFRQAPGKEREFVVAISKGGYKYDSVSLEARFTISRDNAKNTVYLQMNSLRPEDTAVYYCAGTRAYGSSRLRLAETYEYWGQGTLVTVSS
notes: as for B4
Q: How did the EC50 (human VEGFA165 [3]) turn out when B12 was run?
A: The EC50 was 0.24 nM.

B13: 2V30-2H-2m-3GS (VHH)
chain: EVQLVESGGGLVQPGGSLRLSCAASGRTFSSYTMGWFRQAPGKEREFVVAISKGGYKYDAVSLEARFTISRDNSKNTVYLQMNSLRPEDTAVYYCAATRAYGSSRLRLAKTYEYWGQGTLVTVSSGGSEVQLVESGGGLVQPGGSLRLSCAASGRTFSSYTMGWFRQAPGKEREFVVAISKGGYKYDAVSLEARFTISRDNSKNTVYLQMNSLRPEDTAVYYCAATRAYGSSRLRLAKTYEYWGQGTLVTVSS
notes: as for B4
Q: B13 was tested. Which EC50 (human VEGFA165 [3]) did it give?
A: Its EC50 is 0.94 nM.

B14: 2V43-1H-2m-3GS (VHH)
chain: EVQLVESGGGLVQPGGSLRLSCAASGRTFSSYTMGWFRQAPGKEREFVVAISKGGYKYDSVSLEARFTISRDNSKNTVYLQMNSLRPEDTAVYYCAATRAYGSSRLRLANTYEYWGQGTLVTVSSGGSEVQLVESGGGLVQPGGSLRLSCAASGRTFSSYTMGWFRQAPGKEREFVVAISKGGYKYDSVSLEARFTISRDNSKNTVYLQMNSLRPEDTAVYYCAATRAYGSSRLRLANTYEYWGQGTLVTVSS
notes: as for B4
Q: How did the EC50 (human VEGFA165 [3]) turn out when B14 was run?
A: Its EC50 is 1.19 nM.

B15: V29 (VHH)
VHH: QLQLVESGGGSVQPGGSLRLSCEVSGRTFSSYTMGWFRQAPGKEREFVVAISKGGYKYDSVSLEARFTISKDNTKNTVYLQMNSLKPEDTAVYYCAGTRAYGSSRLRLANTYEYWGQGTQVTVSS
notes: Monovalent nanobody; tag not described here
Q: Which Kd (human VEGFA165 [4]) does the source give for B15 here?
A: The Kd was 0.653 nM.

Q: What about the koff (human VEGFA165 [4]) of the same binder?
A: The koff was 0.000154 s⁻¹.

Q: What about the kon (human VEGFA165 [4]) of the same binder?
A: The kon was 236000 M⁻¹ s⁻¹.

B16: V33 (VHH)
VHH: QLQLVESGGGSVQPGGSLRLSCEVSGRTFSSYTMGWFRQAPGKEREFVVAISKGGYKYDSVSLEARFTISKDNTKNTVYLQMNSLKPEDTAVYYCAATRAYGSSRLRLAKTYEYWGQGTQVTVSS
notes: as for B15
Q: Which Kd (human VEGFA165 [4]) does the source give for B16 here?
A: The Kd was 0.719 nM.

Q: And the koff (human VEGFA165 [4])?
A: The koff was 0.000233 s⁻¹.

Q: And the kon (human VEGFA165 [4])?
A: Its kon is 324000 M⁻¹ s⁻¹.
